Laboratory results taken from patent publication CN110845607A (UNIV WEIFANG MEDICAL; SHANDONG KUANHEZHENG BIOMEDICINE CO …, dated 2020).

Molecular target: 牛血清蛋白 (BSA) (bovine, UniProt P02769 25-607)
Experiment: ELISA

牛血清蛋白 (BSA), sequence (P02769 25-607 limits assumed): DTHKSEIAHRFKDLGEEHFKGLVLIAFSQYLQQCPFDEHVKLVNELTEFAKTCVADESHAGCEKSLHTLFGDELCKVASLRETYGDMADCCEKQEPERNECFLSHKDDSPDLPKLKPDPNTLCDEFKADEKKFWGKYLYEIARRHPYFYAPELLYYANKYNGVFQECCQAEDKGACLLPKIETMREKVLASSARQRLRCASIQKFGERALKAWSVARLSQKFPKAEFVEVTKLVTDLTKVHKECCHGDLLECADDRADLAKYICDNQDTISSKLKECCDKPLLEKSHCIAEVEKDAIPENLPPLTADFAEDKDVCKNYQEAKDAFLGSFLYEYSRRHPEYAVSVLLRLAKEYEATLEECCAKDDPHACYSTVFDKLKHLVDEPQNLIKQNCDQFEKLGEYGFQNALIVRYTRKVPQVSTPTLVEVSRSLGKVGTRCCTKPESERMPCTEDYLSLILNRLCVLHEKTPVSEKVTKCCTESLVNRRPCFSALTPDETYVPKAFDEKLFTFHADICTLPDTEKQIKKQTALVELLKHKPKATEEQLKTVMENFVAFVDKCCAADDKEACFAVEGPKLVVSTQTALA

B1: F1 Fab片段 (purified Fab fragment of anti-H1N1 monoclonal antibody F1) (Fab, V domains shown)
VH: QVQLKESGDDLVKPGASVKLSCKASGYTFTNYWINWIKQRPGQGLEWIGRTAPGSGSTYYNELFKGKATLTVDTSSSTAYIQLSSLSSEDSAVYFCALSTGTGALDYWGQGTSVTVS
VL: DIVMTQSPLSLPVSLGDQASISCRSSQSLVHSNGNTYLHWYLQKPGQSPKLLIYKVSNRFSGVPDRFSGSGSGTDFTLKISRVEAEDLGVYFCSQSTHVPWTFGGGTKLEIKR
notes: also called 抗体F1Fab; 单克隆抗体F1
- binding result: no binding
